The data set in a line: label from the status in PepcDB records.

Regarding “MLWRPVGHGVEALYLATPLGRRVGYGVYVYRYRGLLVDTGPPKARPFAPEAALLTHAHEDHAGGAFRLGLPVYGSALTAALVAAPKPLRLYRRLVWGSPRPAQVEVAERVGPLHLLPTPGHAPDHVALYDPEAGLFFGGDLFLGVRASLATPGFDLQALLQSLRRALALKPRAFYCAHAGPLQAPLEALQAKLDFLEGKREEALRLKARGLTPKEALRRLFGGESPLALLSGGEMSRLAFVEALMMEP”, the protein production entry is given as “failed”. For the sequence “MLYRLEKCCTPEIRLLSTYDVCSIAIAAPMRATRSQGVWDFFWETILMAYTTAQLVTAYTNANLGKAPDAATTLTLDAYATQTQTGGLSDAAALTNTLKLVNSTTAVAIQTYQFFTGVAPSAAGLDFLVDSTTNTNDLNDAYYSKFAQENRFINFSINLATGAGAGATAFAAAYTGVSYAQTVATAYDKIIGNAVATAAGVDVAAAVAFLSRQANIDYLTAFVRANTPFTAAADIDLAVKAALIGTILNAATVSGIGGYATATAAMINDLSDGALSTDNAAGVNLFTAYPSSGVSGSTLSLTTGTDTLTGTANNDTFVAGEVAGAATLTVGDTLSGGAGTDVLNWVQAAAVTALPTGVTISGIETMNVTSGAAITLNTSSGVTGLTALNTNTSGAAQTVTAGAGQNLTATTAAQAANNVAVDGGANVTVASTGVTSGTTTVGANSAASGTVSVSVANSSTTTTGAIAVTGGTAVTVAQTAGNAVNTTLTQADVTVTGNSSTTAVTVTQTAAATAGATVAGRVNGAVTITDSAAASATTAGKIATVTLGSFGAATIDSSALTTVNLSGTGTSLGIGRGALTATPTANTLTLNVNGLTTTGAITDSEAAADDGFTTINIAGSTASSTIASLVAADATTLNISGDARVTITSHTAAALTGITVTNSVGATLGAELATGLVFTGGAGADSILLGATTKAIVMGAGDDTVTVSSATLGAGGSVNGGDGTDVLVANVNGSSFSADPAFGGFETLRVAGAAAQGSHNANGFTALQLGATAGATTFTNVAVNVGLTVLAAPTGTTTVTLANATGTSDVFNLTLSSSAALAAGTVALAGVETVNIAATDTNTTAHVDTLTLQATSAKSIVVTGNAGLNLTNTGNTAVTSFDASAVTGTGSAVTFVSANTTVGEVVTIRGGAGADSLTGSATANDTIIGGAGADTLVYTGGTDTFTGGTGADIFDINAIGTSTAFVTITDAAVGDKLDLVGISTNGAIADGAFGAAVTLGAAATLAQYLDAAAAGDGSGTSVAKWFQFGGDTYVVVDSSAGATFVSGADAVIKLTGLVTLTTSAFATEVLTLA”, the protein production entry is reported as “failed”. For the sequence “MLYSSDLLAIVGAGEQASLSPRRLCLFKTTTGLPLRELNFLTSILAVRMNKKRLVVVLLEKTFVYDLNTLVMLDTIDTVPNPKGLSAFSPSLEGCYLAVPASTTKGSVLVYNVMDLQSHSEIDAHRSPLAAIALSSNGMYIATGSEQGTLIRVHLVSEATKSYSFRRGTYPSTIYSLSFGPSTQLPDILIATSSSGSIHAFSLSLAINQRSKRSTSFLGSVLPDSVSDALDPAHHHVLQNAVSSGIRSYAVVRKIDKLEGTSSPSHFTSLRATVSVITYNGYFQEYTLSINNKNESLWTLEREFNLFSITTG”, the protein production entry was “failed”. For the sequence “MLYTTFSAIIPSFLIILIGYTVGKIFSEETMGLASKVAIWVMVPTVTFTFINEYTPSFSTLGEFGLGVAIIFVIFYLYSRLFKEKKEVIHVTAVTANVGYLGYPILLSLWGEEALSLGVVYATLNIIMFSAVLPMFLGEKVNVKNLFKLPYVYALVAGFLTGKLGWSFRELPEWLVNAILMLKQSAIPYLLIYVGLSVSKLKLGRHLSKIGGIIVVNKLFLAPLIALVFALIYGLEGLTAKVFVLETAMPAAVNAVILTSALGGDSETVSYGVTLTTFFAIFTLPVWAVILESIFG”, the protein production entry was “failed”. Then “MMAGFAQTTITKINQFYERWMPRLPAEMTARNVLVFCVVCLLCIGSVMVASASMPYAEYMHENPFHYVVRHAISIATAAIVAYLVYKVPLNVWFKNTFSFWLITILLLLAVLVIGTEVNGSRRWIRLAGFTLQPTEVAKVMMAIFTADYVVRRAKEVRTHWKGLVRLSGVMAITVGLIIAEPDLGATVVIVLMMVGIFFLAGAPPTQFAIMLGAVVMGIGFLILFEPYRLARAMSFTNPWADPLGTGYQLSNALMAFGRGEWFGTGLGHSVQKLSYLPEAHTDFMLAVLGEEFGFVGISIVIGLSFIMLACCIKIGHRALKHNFLRAGYLAYGISIIFLLQIIVNAGMNMGLMPTKGLTLPFISYGGTSLMMCAAMISLILRIDASTQEINPDREESNF”, with “failed”.

On to “MMARVEKLRELMKENNLQGFLVTSPYNLRYLTNFTGTTGLAMITLDKAFFVTDFRYTEQAAEQATGFTIVKNTGHIFDEVADLAERLQLDNLAFEETQVSFADYSLLEEILPCELVPVMGLIEELREVK”, for which the protein production entry is reported as “not failed”.

The record behind these values is a protein production outcome set (Wang et al. 2014).
